From the RNAGym collection of RNA variant scans (doi:10.7554/elife.80360)

B1: Hairpin Ribozyme (parent)
chain: GUCCUCUUUCACGUGCGCGUGAAAGAGAGAAGUGAACCAGAGAAACACACGUUGUGGUAUAUUACCUGGUA

Variants of: B1
Assay: self-cleavage, relative activity (ratio to wild type); higher = more cleavage; co-transcriptional

| Variant | self-cleavage |
| --- | --- |
| U14G G27U | 0.144 |
| G13C A61G | 0.164 |
| G13U A59C | 0.161 |
| G13U A59U | 0.181 |
| U14A G42A | 0.108 |
| U14G U55G | 0.273 |
| U14C A41U | 1.34 |
| G13U U33A | 0.105 |
| G13U A41U | 1.15 |
| G13U A41G | 0.752 |
| U14G C48A | 0.165 |
| U14A G32U | 0.108 |
| U14A G32A | 0.106 |
| G13U U58A | 0.808 |
| G13U U58C | 0.919 |
| U14G A22G | 0.798 |
| U14G A22U | 0.683 |
| U14A G25C | 0.418 |
| G13C A28C | 0.343 |
| G15A C16U | 1.01 |
| G13C G15A | 0.74 |
| G13C G15C | 0.541 |
| U14G C46G | 0.131 |
| U14G C50G | 0.2 |

| Variant | self-cleavage |
| --- | --- |
| U14G C50U | 0.2 |
| G13C G40C | 0.11 |
| G13C G40A | 0.299 |
| U14G U70G | 0.659 |
| U14G U70C | 1.13 |
| U14A G21C | 0.467 |
| U14C A61G | 0.133 |
| U14C A61C | 0.162 |
| U14A A35U | 0.656 |
| U14A A28C | 0.454 |
| G13U G27U | 0.215 |
| G13U G27A | 0.347 |
| U14A A23U | 0.701 |
| G13U U53A | 0.777 |
| U14C C48U | 0.117 |
| U14C C48A | 0.256 |
| G13U C48G | 0.106 |
| U14C C65U | 0.295 |
| U14C A28U | 0.668 |
| G13U G69C | 0.198 |
| G13U G51C | 0.745 |
| G13U G51U | 0.887 |
| G13C A30U | 0.14 |
| G13U A39G | 0.273 |

| Variant | self-cleavage |
| --- | --- |
| U14C G54A | 0.509 |
| U14C G54U | 0.541 |
| G13C U62A | 0.143 |
| G13C U62G | 0.185 |
| U14G U58A | 0.753 |
| G15A A30G | 0.187 |
| G15A A44U | 0.196 |
| G15A A44C | 0.143 |
| U14A A26C | 0.817 |
| G13U G21C | 0.431 |
| G13U G21A | 0.595 |
| U14A U55C | 0.206 |
| U14A U55A | 0.201 |
| G13U A71U | 0.684 |
| U14C C37G | 0.319 |
| U14C C37A | 0.245 |
| U14G G15C | 0.864 |
| U14G G29U | 0.151 |
| U14G G29A | 0.0483 |
| U14G U33G | 0.127 |
| U14G U33C | 0.0267 |
| U14G U33A | 0.116 |
| U14C G69A | 0.341 |
| U14A C48A | 0.179 |

| Variant | self-cleavage |
| --- | --- |
| U14A C48G | 0.196 |
| U14C G34C | 1.5 |
| U14C A71C | 1.59 |
| U14C A71G | 1.24 |
| U14G A26C | 0.522 |
| U14G A26U | 0.549 |
| U14C A36U | 0.844 |
| U14C A36G | 1.44 |
| U14C A36C | 0.476 |
| U14C U67C | 0.227 |
| G13C A45U | 0.0506 |
| G13C A45G | 0.178 |
| G13C A45C | 0.145 |
| U14G A45G | 0.0744 |
| G13C U70C | 0.716 |
| G13C U70A | 0.475 |
| G13C A44G | 0.127 |
| G15A A47C | 0.302 |
| G13C G25U | 0.436 |
| G13C G25A | 0.448 |
| U14A G54C | 0.338 |
| U14G A49U | 0.0246 |
| G13U G57C | 0.173 |
| G13U G57U | 0.202 |

| Variant | self-cleavage |
| --- | --- |
| U14G U52G | 0.507 |
| U14A A41G | 0.867 |
| U14C A49G | 0.553 |
| U14C A45U | 0.119 |
| U14C A22G | 0.864 |
| G13C G21U | 0.49 |
| U14A A45G | 0.0459 |
| G13C G34C | 1.1 |
| G13C G34U | 1.1 |
| U14C U63G | 0.0837 |
| G13U G40A | 0.342 |
| G13C G51U | 0.61 |
| G13C A59G | 0.13 |
| U14G A43U | 0.186 |
| U14G A43G | 0.0894 |
| U14A A71U | 0.645 |
| U14A A71C | 1.34 |
| G13U A30C | 0.166 |
| U14A G34U | 1.47 |
| G13U G56C | 0.12 |
| G13U G15U | 0.941 |
| G15A C18U | 1.05 |
| G13U U14C | 0.544 |
| U14C U62C | 0.0439 |

| Variant | self-cleavage |
| --- | --- |
| U14C U62G | 0.218 |
| U14C U62A | 0.142 |
| G13U A24G | 0.681 |
| G13C G27C | 0.161 |
| G13C U63G | 0.164 |
| G13C U63C | 0.111 |
| G13C C48U | 0.108 |
| G13C C16G | 0.407 |
| U14G G54A | 0.439 |
| U14C G21A | 0.865 |
| G13U G25C | 0.274 |
| U14G C37A | 0.276 |
| U14G C37G | 0.276 |
| G13U A22C | 0.533 |
| G13U A22U | 0.622 |
| U14A | 0.956 |
| U14G | 0.813 |
| U14C | 0.982 |
| U14G A31C | 0.267 |
| U14A U60A | 0.987 |
| U14A U60C | 1.07 |
| U14C U52C | 0.938 |
| U14G C66A | 0.0772 |
| G13U A23C | 0.557 |

| Variant | self-cleavage |
| --- | --- |
| G13U A47U | 0.129 |
| G13U A47C | 0.326 |
| G13U A47G | 0.143 |
| U14A A47G | 0.153 |
| U14G A47U | 0.105 |
| G13C C38U | 0.384 |
| G13C C38G | 0.179 |
| G13C C38A | 0.2 |
| U14A A39G | 0.345 |
| U14C G27A | 0.423 |
| G15A A49G | 0.527 |
| G15A A49U | 0.149 |
| G13C U52C | 0.646 |
| G13C U52G | 0.76 |
| G13U G42C | 0.227 |
| G13U G54A | 0.518 |
| G15A A23C | 0.877 |
| U14G G42C | 0.101 |
| G13U C18G | 0.722 |
| U14C A24C | 0.943 |
| U14C A24U | 0.545 |
| U14C A24G | 0.81 |
| G13U U67G | 0.241 |
